{"source": "IntAct's records for PubMed 18571423", "target": "rbbp7_human RBBP7 (UniProt Q16576)", "sequence (Q16576 whole entry)": "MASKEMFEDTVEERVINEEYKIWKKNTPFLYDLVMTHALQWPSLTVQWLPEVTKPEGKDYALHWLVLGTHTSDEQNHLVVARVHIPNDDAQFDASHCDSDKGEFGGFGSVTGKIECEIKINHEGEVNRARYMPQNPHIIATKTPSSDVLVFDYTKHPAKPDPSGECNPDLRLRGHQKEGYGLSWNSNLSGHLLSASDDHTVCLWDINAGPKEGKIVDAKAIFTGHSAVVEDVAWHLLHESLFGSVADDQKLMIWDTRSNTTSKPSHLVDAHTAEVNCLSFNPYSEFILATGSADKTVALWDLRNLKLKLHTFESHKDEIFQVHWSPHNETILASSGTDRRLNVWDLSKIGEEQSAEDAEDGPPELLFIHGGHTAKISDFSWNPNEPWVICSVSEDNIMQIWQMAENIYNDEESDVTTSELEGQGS", "data": [{"substance": "Histone H4 (Homo sapiens) (from UniProt P62805) I35T;R36S;L38D", "values": [{"measurement": "effect of a mutation on the interaction", "result": "disrupting interaction"}]}, {"substance": "Histone H4 (Homo sapiens) (from UniProt P62805) R40V;R41N", "values": [{"measurement": "effect of a mutation on the interaction", "result": "disrupting interaction"}]}, {"substance": "Histone H4 (Homo sapiens) (from UniProt P62805) L38D;R40V;R41N", "values": [{"measurement": "effect of a mutation on the interaction", "result": "disrupting interaction"}]}]}
